Read-outs that look alike come from different tables or passages of the source.

Common to all, as to experiment: two-hybrid library CCmax;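 further: natural log of median RNA to DNA barcode read ratio; higher means stronger binding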
The target of experiment [1] is T1, 4H3493-AA.
T1 chain: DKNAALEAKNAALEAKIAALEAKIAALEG

Experiment [2] has as its target T2, 4H3697-AA.
T2 chain: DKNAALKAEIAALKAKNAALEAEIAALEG
The note with it: mean of both orientations.

Experiment [3] concerns the target T3, 4H3753-AA.
T3 chain: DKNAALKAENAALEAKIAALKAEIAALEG
The note with it: mean of both orientations.

Experiment [4] concerns the target T4, 4H536-AA.
T4 chain: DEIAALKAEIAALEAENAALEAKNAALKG
As to conditions: mean of both orientations.

The target in experiment [5] is T5, 4H3865-AA.
T5 chain: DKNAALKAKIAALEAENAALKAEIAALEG
As to conditions: mean of both orientations.

Experiment [6] has as its target T6, 4H745-AA.
T6 chain: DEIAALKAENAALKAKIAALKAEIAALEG
As to conditions: mean of both orientations.

The target of experiment [7] is T7, 4H850-AA.
T7 chain: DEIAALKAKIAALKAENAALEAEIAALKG
The note with it: mean of both orientations.

Experiment [8] has as its target T8, 4H376-AA.
T8 chain: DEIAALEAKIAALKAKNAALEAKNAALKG
As to conditions: mean of both orientations.

The target of experiment [9] is T9, 4H485-AA.
T9 chain: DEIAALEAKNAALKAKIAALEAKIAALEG
As to conditions: mean of both orientations.

Experiment [10] has as its target T10, 4H3381-AA.
T10 chain: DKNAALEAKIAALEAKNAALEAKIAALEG

Experiment [11] addresses T11, 4H3395-AA.
T11 chain: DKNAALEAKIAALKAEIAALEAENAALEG
The note with it: mean of both orientations.

Experiment [12] has as its target T12, 4H570-AA.
T12 chain: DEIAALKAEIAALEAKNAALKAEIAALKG
The note with it: mean of both orientations.

Experiment [13] deals with T13, 4H406-AA.
T13 chain: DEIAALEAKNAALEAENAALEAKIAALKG
As to conditions: mean of both orientations.

In experiment [14] the target is T14, 4H688-AA.
T14 chain: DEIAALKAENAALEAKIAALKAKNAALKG
As to conditions: mean of both orientations.

The target in experiment [15] is T15, 4H458-AA.
T15 chain: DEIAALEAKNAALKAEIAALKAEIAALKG
As to conditions: mean of both orientations.

For experiment [16], the target named is T16, 4H710-AA.
T16 chain: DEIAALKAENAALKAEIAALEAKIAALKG
The note with it: mean of both orientations.

Experiment [17] has as its target T17, 4H930-AA.
T17 chain: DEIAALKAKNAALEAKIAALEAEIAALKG
As to conditions: mean of both orientations.

For experiment [18], the target named is T18, 4H94-AA.
T18 chain: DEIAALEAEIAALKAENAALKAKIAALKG
The note with it: mean of both orientations.

Experiment [19] has as its target T19, 4H909-AA.
T19 chain: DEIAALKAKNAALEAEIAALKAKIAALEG
The note with it: mean of both orientations.

Experiment [20] deals with T20, 4H891-AA.
T20 chain: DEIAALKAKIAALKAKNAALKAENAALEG
The note with it: mean of both orientations.

Experiment [21] has as its target T21, 4H963-AA.
T21 chain: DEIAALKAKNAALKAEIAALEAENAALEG
As to conditions: mean of both orientations.

The target in experiment [22] is T22, 4H797-AA.
T22 chain: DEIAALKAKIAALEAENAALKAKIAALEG
The note with it: mean of both orientations.

The target of experiment [23] is T23, 4H629-AA.
T23 chain: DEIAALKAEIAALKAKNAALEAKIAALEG
The note with it: mean of both orientations.

For experiment [24], the target named is T24, 4H347-AA.
T24 chain: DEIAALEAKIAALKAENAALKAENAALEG

The target of experiment [25] is T25, 4H3590-AA.
T25 chain: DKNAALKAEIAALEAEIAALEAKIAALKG
As to conditions: mean of both orientations.

In experiment [26] the target is T26, 4H3410-AA.
T26 chain: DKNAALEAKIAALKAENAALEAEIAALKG
The note with it: mean of both orientations.

The target of experiment [27] is T27, 4H452-AA.
T27 chain: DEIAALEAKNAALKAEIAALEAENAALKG
As to conditions: mean of both orientations.

Experiment [28] deals with T28, 4H56-AA.
T28 chain: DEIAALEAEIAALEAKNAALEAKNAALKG
The note with it: mean of both orientations.

Experiment [29] concerns the target T29, 4H_BCR.
T29 chain: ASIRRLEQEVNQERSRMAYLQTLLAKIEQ
As to conditions: mean of both orientations.

For experiment [30], the target named is 4H_GCN4.
Sequence of 4H_GCN4 (chain, as listed by the source): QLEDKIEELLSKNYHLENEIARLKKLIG
The target in experiment [31] is T30, 4H_APH.
T30 chain: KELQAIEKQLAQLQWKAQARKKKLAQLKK
The note with it: mean of both orientations.

Experiment [32] concerns the target GCN2_T. The note with it: mean of both orientations.

Consider DKNAALEAKIAALEAKNAALEAKIAALEG [4H3381-AA], for which the interaction score was -1.77 in [1] (mean of both orientations); -1.45 in [2]; -1.71 in experiment [3]; -1.65 in experiment [4]; -1.52 in experiment [5]; -1.6 in experiment [6]. Further, the interaction score is -1.85 in experiment [7]; -1.55 in experiment [8]; -0.941 in [9]; 0.71 in experiment [10]; -1.66 in [11]; -1.34 in [12]. The interaction score in experiment [13] is -1.15; in experiment [14], -1.36; in [15], -1.53; in experiment [16], -1.49; in experiment [17], -1.38; in experiment [18], -1.76. The interaction score was -1.66 in experiment [19]; -1.56 in [20]; -2.17 in experiment [21]; -1.57 in experiment [22]; -1.4 in [23]; -1.55 in experiment [24] (mean of both orientations). Besides, the interaction score was -1.02 in experiment [25] and -1.09 in [26].
Consider DEIAALEAKIAALKAENAALKAENAALEG [4H347-AA], for which the interaction score in experiment [1] (mean of both orientations) was -2.08; in [27], -0.224; in [28] it was -0.0342; in experiment [29], -1.88; in experiment [8], -1.06; in experiment [13], -1.21. In addition, the interaction score in experiment [14] is -0.941; in [30], -2.04; in experiment [21] it was -1.41; in [31] it was -1.79; in experiment [24], -0.315; in experiment [32], -2.14.
On to DKNAALEAKNAALEAKIAALEAKIAALEG [4H3493-AA], for which the interaction score in [1] was 0.972; in experiment [8] it was -1.47; in experiment [13] it was -1.82; in experiment [14] it was -1.63; in [21] it was -1.58.

The record behind these values is article PMC10397247.
